The subject of this series is C[C@@H]1O[C@@H](O[C@H]2[C@H](O)[C@@H](O)C(O)O[C@@H]2C(=O)O)[C@H](O)[C@H](O)[C@H]1O. The series is described as follows: purified protein. As to conditions: 50 mM Hepes-NaOH pH 7.0, 30 °C, 20 nM enzyme.

By Km is commonly meant the concentration of substrate that gives half-maximal velocity. The kcat is the maximal rate divided by the concentration of active sites. What is called kcat/Km is the second-order rate constant that governs catalysis at low substrate concentration. “FoRham1 (GA-specific L-rhamnose-α-1,4-D-glucuronate lyase) (Fusarium oxysporum)”: the Km came to 2800 ± 200 µM, the turnover number (kcat) came out at 95.5 s⁻¹ and the kcat/Km is 34100 M⁻¹ s⁻¹.

Values taken from paper PMC8377490.
